# Experimental data published in the supplement of paper PMC10567573.
# B1: ACSBG2 (parent)
# chain: TPMTIPEFFRESVNRFGTYPALAS
# Variants of: B1
# Test: protein stability index of a GFP-peptide fusion (GPS, HEK-293T) (PSI 1-6); higher = more stable
# Conditions: c terminus: a fixed tail appended
# 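Note: lentivirally expressed fusions sorted by FACS into six bins by GFP to DsRed ratio, PSI derived from sequencing read proportions per bin multiplied by bin number.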
row,Variant,protein stability index
1,TPMTIPDFFRESVNRFGTYPALAS,2.13
2,TPMTIPFFFRESVNRFGTYPALAS,2.93
3,TPMTIPGFFRESVNRFGTYPALAS,2.14
4,TPMTIPHFFRESVNRFGTYPALAS,2.94
5,TPMTIPIFFRESVNRFGTYPALAS,2.65
6,TPMTIPKFFRESVNRFGTYPALAS,2.25
7,TPMTIPLFFRESVNRFGTYPALAS,2.15
8,TPMTIPMFFRESVNRFGTYPALAS,2.63
9,TPMTIPNFFRESVNRFGTYPALAS,2.63
10,TPMTIPPFFRESVNRFGTYPALAS,2.24
11,TPMTIPQFFRESVNRFGTYPALAS,2.02
12,TPMTIPRFFRESVNRFGTYPALAS,2.19
13,TPMTIPSFFRESVNRFGTYPALAS,2
14,TPMTIPTFFRESVNRFGTYPALAS,2.19
15,TPMTIPVFFRESVNRFGTYPALAS,1.9
16,TPMTIPWFFRESVNRFGTYPALAS,1.74
17,TPMTIPYFFRESVNRFGTYPALAS,1.52
18,TPMTIPEAFRESVNRFGTYPALAS,2.99
19,TPMTIPECFRESVNRFGTYPALAS,2.7
20,TPMTIPEDFRESVNRFGTYPALAS,3.19
21,TPMTIPEEFRESVNRFGTYPALAS,2.35
22,TPMTIPEGFRESVNRFGTYPALAS,3.02
23,TPMTIPEHFRESVNRFGTYPALAS,2.45
24,TPMTIPEIFRESVNRFGTYPALAS,2.42

row,Variant,protein stability index
1,TPMTIPEKFRESVNRFGTYPALAS,3.02
2,TPMTIPELFRESVNRFGTYPALAS,2.66
3,TPMTIPEMFRESVNRFGTYPALAS,2.35
4,TPMTIPENFRESVNRFGTYPALAS,3.19
5,TPMTIPEPFRESVNRFGTYPALAS,2.72
6,TPMTIPEQFRESVNRFGTYPALAS,2.65
7,TPMTIPERFRESVNRFGTYPALAS,2.39
8,TPMTIPESFRESVNRFGTYPALAS,2.9
9,TPMTIPETFRESVNRFGTYPALAS,2.8
10,TPMTIPEVFRESVNRFGTYPALAS,2.14
11,TPMTIPEWFRESVNRFGTYPALAS,2.09
12,TPMTIPEYFRESVNRFGTYPALAS,2.4
13,TPMTIPEFARESVNRFGTYPALAS,2.42
14,TPMTIPEFCRESVNRFGTYPALAS,2.17
15,TPMTIPEFDRESVNRFGTYPALAS,3.36
16,TPMTIPEFERESVNRFGTYPALAS,3.41
17,TPMTIPEFGRESVNRFGTYPALAS,3.05
18,TPMTIPEFHRESVNRFGTYPALAS,2.98
19,TPMTIPEFIRESVNRFGTYPALAS,2.27
20,TPMTIPEFKRESVNRFGTYPALAS,2.67
21,TPMTIPEFLRESVNRFGTYPALAS,1.76
22,TPMTIPEFMRESVNRFGTYPALAS,2.45
23,TPMTIPEFNRESVNRFGTYPALAS,3.16
24,TPMTIPEFPRESVNRFGTYPALAS,2.79

row,Variant,protein stability index
1,TPMTIPEFQRESVNRFGTYPALAS,2.37
2,TPMTIPEFRRESVNRFGTYPALAS,2.88
3,TPMTIPEFSRESVNRFGTYPALAS,2.71
4,TPMTIPEFTRESVNRFGTYPALAS,3.4
5,TPMTIPEFVRESVNRFGTYPALAS,2.36
6,TPMTIPEFWRESVNRFGTYPALAS,1.92
7,TPMTIPEFYRESVNRFGTYPALAS,2.71
8,TPMTIPEFFAESVNRFGTYPALAS,2.61
9,TPMTIPEFFCESVNRFGTYPALAS,1.5
10,TPMTIPEFFDESVNRFGTYPALAS,2.75
11,TPMTIPEFFEESVNRFGTYPALAS,2.43
12,TPMTIPEFFFESVNRFGTYPALAS,2.04
13,TPMTIPEFFGESVNRFGTYPALAS,2.37
14,TPMTIPEFFHESVNRFGTYPALAS,2.15
15,TPMTIPEFFIESVNRFGTYPALAS,1.51
16,TPMTIPEFFKESVNRFGTYPALAS,2.55
17,TPMTIPEFFLESVNRFGTYPALAS,1.45
18,TPMTIPEFFMESVNRFGTYPALAS,1.63
19,TPMTIPEFFNESVNRFGTYPALAS,3.3
20,TPMTIPEFFPESVNRFGTYPALAS,3.03
21,TPMTIPEFFQESVNRFGTYPALAS,2.62
22,TPMTIPEFFSESVNRFGTYPALAS,2.45
23,TPMTIPEFFTESVNRFGTYPALAS,2.37
24,TPMTIPEFFVESVNRFGTYPALAS,1.54

row,Variant,protein stability index
1,TPMTIPEFFWESVNRFGTYPALAS,1.97
2,TPMTIPEFFYESVNRFGTYPALAS,1.86
3,TPMTIPEFFRASVNRFGTYPALAS,1.95
4,TPMTIPEFFRCSVNRFGTYPALAS,1.95
5,TPMTIPEFFRDSVNRFGTYPALAS,2.58
6,TPMTIPEFFRFSVNRFGTYPALAS,2.47
7,TPMTIPEFFRGSVNRFGTYPALAS,1.89
8,TPMTIPEFFRHSVNRFGTYPALAS,1.84
9,TPMTIPEFFRISVNRFGTYPALAS,1.69
10,TPMTIPEFFRKSVNRFGTYPALAS,2.09
11,TPMTIPEFFRLSVNRFGTYPALAS,1.48
12,TPMTIPEFFRMSVNRFGTYPALAS,2.76
13,TPMTIPEFFRNSVNRFGTYPALAS,1.82
14,TPMTIPEFFRPSVNRFGTYPALAS,1.72
15,TPMTIPEFFRQSVNRFGTYPALAS,1.5
16,TPMTIPEFFRRSVNRFGTYPALAS,1.99
17,TPMTIPEFFRSSVNRFGTYPALAS,2.15
18,TPMTIPEFFRTSVNRFGTYPALAS,2.17
19,TPMTIPEFFRVSVNRFGTYPALAS,1.99
20,TPMTIPEFFRWSVNRFGTYPALAS,2.08
21,TPMTIPEFFRYSVNRFGTYPALAS,1.68
22,TPMTIPEFFREAVNRFGTYPALAS,1.97
